The record followed here is doi:10.1101/2022.07.22.500997 (bioRxiv, 2022).

In series [1] the target is Dg_(GH172c) (HMPREF9455_02479), DUF2961 / GH172 exo-D-arabinofuranosidase from Dysgonomonas gadei (Dysgonomonas gadei) (UniProt F5IZG2). In words: crystal structure.
Series [2] shares this target. In words: SEC-MALS. A general note: Size exclusion chromatography separates by hydrodynamic size, large species first.
For series [3], the target named is Dg_(GH172b) (HMPREF9455_02471), DUF2961 / GH172 exo-D-arabinofuranosidase from Dysgonomonas gadei (Dysgonomonas gadei) (UniProt F5IZF4). In words: SEC-MALS.
Series [4] deals with Dg_(GH172a) (HMPREF9455_02467), DUF2961 / GH172 exo-D-arabinofuranosidase from Dysgonomonas gadei (Dysgonomonas gadei) (UniProt F5IZF0). In words: SEC-MALS.
The target of series [5] is Myc_(GH172) (GII36_05205), DUF2961 / GH172 enzyme from Candidatus Mycosynbacter amalyticus (Candidatus Mycosynbacter amalyticus). In words: SEC-MALS.
The series “SEC-MALS” concerns the molecule itself. Description: SEC-MALS.

In general, stoichiometry N refers to the number of molecules, sites or subunits per partner or assembly. With “Dg_(GH172c) (HMPREF9455_02479), DUF2961 / GH172 exo-D-arabinofuranosidase from Dysgonomonas gadei (from UniProt F5IZG2 1-402) (enzyme)”, the stoichiometry N in series [1] and in series [2] was 6 each time.

Molecule “Dg_(GH172b) (HMPREF9455_02471), DUF2961 / GH172 exo-D-arabinofuranosidase from Dysgonomonas gadei (from UniProt F5IZF4 1-643) (enzyme)” came in with a stoichiometry N in series [3] of 2.

For “Dg_(GH172a) (HMPREF9455_02467), DUF2961 / GH172 exo-D-arabinofuranosidase from Dysgonomonas gadei (from UniProt F5IZF0 1-386) (enzyme)”, in series [4], the stoichiometry N was determined as 12.

Regarding “Myc_(GH172) (GII36_05205), DUF2961 / GH172 enzyme from Candidatus Mycosynbacter amalyticus”, in series [5], the stoichiometry N is 3.

B1: Noc_(GH172) (O3I_017420), DUF2961 / GH172 enzyme from Nocardia brasiliensis (enzyme)
chain: MTPPRRSELWLLDDTRTRSVSAENPTGAPGGGARATTGTGAHAARLLGPGWKISPSIVLGDGETATLADVSGPGVLRHCWLTTDRAALRELTLRMYWDDAAEPAIDVPLGDFFCNGWDELALVDSEMVVVAPAGGLNSYWPMPFRRRARITLENHCGRSVPVYYQITYGEEDVPGEAGYLHARWSRSAPLGSPAVHTLLDTGPARGRYVGTYLAIRPGAPRWWGEGEMKFYLDGDDEYPTLCGTGTEDYFGGAWNFDMDGKYRTYSTAYLGLPQALPADEIYQAHQRFGMYRWHVHDPICFHRELRVTVQGLGWRDSDTYLPLEDAEIATTVWWYQEVPPSG
B1: in the series “SEC-MALS”, the “stoichiometry N” value turned out to be 3.
